Measured values from patent US10753947B2, “Methods for screening voltage-gated proteins” (D.E. Shaw Research, LLC, priority 2012, dated 2020).

How the values were obtained:
Kv2.1 = target: T1, Kv2.1 (Homo sapiens, UniProt Q14721); settings: cited from earlier work; for IC50: Table 5, read-out: IC50, channel Kv2.1
T1 sequence (Q14721 1-858): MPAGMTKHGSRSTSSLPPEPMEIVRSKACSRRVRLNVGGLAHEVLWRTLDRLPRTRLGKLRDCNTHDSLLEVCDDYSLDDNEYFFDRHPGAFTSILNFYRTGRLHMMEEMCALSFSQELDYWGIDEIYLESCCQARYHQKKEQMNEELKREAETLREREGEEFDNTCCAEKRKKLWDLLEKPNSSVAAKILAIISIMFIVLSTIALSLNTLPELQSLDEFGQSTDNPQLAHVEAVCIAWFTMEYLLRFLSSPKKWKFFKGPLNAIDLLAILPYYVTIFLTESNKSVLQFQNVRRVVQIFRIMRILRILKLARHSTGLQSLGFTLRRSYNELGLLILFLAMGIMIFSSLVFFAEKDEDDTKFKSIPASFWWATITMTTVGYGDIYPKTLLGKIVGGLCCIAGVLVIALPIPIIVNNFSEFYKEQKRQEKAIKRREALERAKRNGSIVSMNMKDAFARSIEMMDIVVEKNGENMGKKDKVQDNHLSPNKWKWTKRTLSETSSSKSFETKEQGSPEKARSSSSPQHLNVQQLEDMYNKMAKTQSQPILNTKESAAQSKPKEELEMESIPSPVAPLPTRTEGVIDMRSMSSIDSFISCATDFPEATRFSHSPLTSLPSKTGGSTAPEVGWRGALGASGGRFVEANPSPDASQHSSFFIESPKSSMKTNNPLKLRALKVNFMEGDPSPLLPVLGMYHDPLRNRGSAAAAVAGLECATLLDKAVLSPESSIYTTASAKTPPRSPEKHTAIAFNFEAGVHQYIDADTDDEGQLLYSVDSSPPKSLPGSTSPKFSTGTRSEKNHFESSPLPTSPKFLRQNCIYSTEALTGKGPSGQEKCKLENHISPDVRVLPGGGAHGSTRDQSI

[1] = target: T2, Kv2.1 channel in pancreatic β-cells (Homo sapiens, UniProt Q14721); settings: cited from earlier work
T2 construct: host or cells: pancreatic β-cells (endogenous channel)
T2 sequence (Q14721 1-858): T1 sequence (Q14721 1-858)

[2] = test system: KV2.1 wild-type base construct (hKv2.1-m7-c3); experiment: Alpha currents (Iα) of Kv2.1 WT base construct in Xenopus oocytes, two electrode voltage-clamp; format: cell-based, human; settings: 1 nM AgTx2, WT
Description: (§1) The coding cDNAs of KV2.1 “wild-type” (hereinafter WT) base construct (hKv2.1-m7-c3 is human Kv2.1, residues 1-858, mutated to confer AgTx2 sensitivity and to remove extracellular cysteine residues) was synthesized (Entelchon GmbH) and cloned into the high expression vector pBSTA.
Transcripted cRNA was produced using the mMessage mMachine kit (Ambion Inc.). Two to four days past injection of cRNA into stage V-VI Xenopus oocytes (NASCO) potassium currents through the alpha pore (Iα) were recorded with the two electrode voltage-clamp technique making use of a TURBO TEC-05× amplifier (npi electronic GmbH). Currents were filtered at 10 kHz and sampled at 20 kHz. The bath solution contained (in mM): NaCl 96, KCl 2, CaCl2 1, MgCl2 1 and HEPES 5 (pH 7.5). Voltage-recording and current-injecting microelectrodes were filled with 3 M KCl and pulled to have resistances between 0.2 and 1 MΩ (see Stork et al., 2007). The pClamp software package v.10.1 (Molecular Devices, Inc.) was used for data acquisition and analysis.
For recording of alpha currents (Iα), 100 ms pulses were applied from ˜60 to +60 mV in 10 mV steps at 1 Hz from a holding potential of ˜80 mV to the Kv2.1 channel constructs to measure alpha currents (Iα). Passive leak currents were subtracted online using a P/4 procedure: pClamp software generates a series of scaled-down replica sweeps of the main stimulus waveform. […]

Kv2.1 R300S (R2S) = experiment: Alpha currents (Iα) of Kv2.1 R2S in Xenopus oocytes, two electrode voltage-clamp; format: cell-based, human; settings: 1 nM AgTx2, R2S
From the text: as §1
Mutations Kv2.1 R294N (hereinafter R0N), Kv2.1 R300S (hereinafter R2S), Kv2.1 R294C/R300S (hereinafter R0C/R2S), Kv2.1 R293S/R294S (hereinafter R-1S/R0S), Kv2.1 R293S/R294C (hereinafter R-1S/R0C), Kv2.1 R293S/R294S/R300S (hereinafter R-1S/R0S/R2S), Kv2.1 R293S/R294C/R300S (hereinafter R-1S/R0C/R2S) were introduced using the QuikChange® Lightning Site-Directed Mutagenesis Kit (Stratagene) with mutagenic primers according to the manufacturer's instructions. All constructs were checked by restriction site mapping and sequencing.
Transcripted cRNA was produced using the mMessage mMachine kit (Ambion Inc.). Two to four days past injection of cRNA into stage V-VI Xenopus oocytes (NASCO) potassium currents through the alpha pore (Iα) were recorded with the two electrode voltage-clamp technique making use of a TURBO TEC-05× amplifier (npi electronic GmbH). Currents were filtered at 10 kHz and sampled at 20 kHz. The bath solution contained (in mM): NaCl 96, KCl 2, CaCl2 1, MgCl2 1 and HEPES 5 (pH 7.5). […]

| Substance | IC50 (Kv2.1) [nM] | Inhibits the Kv2.1 channel in pancreatic β-cells [1] | Mean inhibition of the maximal outward current at +60 mV [2] [%] | Mean inhibition of the maximal outward current at +60 mV (Kv2.1 R300S (R2S)) [%] | Sensitivity of Kv2.1 to the scorpion toxin (Kv2.1; text b541) |
| --- | --- | --- | --- | --- | --- |
| Guangxitoxin (EGECGGFWWKCGSGKPACCPKYVCSPKWGLCNFPMP) [GxTx-1E] | 2 | nanomolar range | – | – | – |
| Agitotoxin-2 (GVPINVSCTGSPQCIKPCKDAGMRFGKCMNRKCHCTPK) [AgTx2] | > 2000 | – | 66.5±2.9 | 67.8±2.8 | insensitive |
